Test results reported in article PMC12177098, “A human-like glutaminase-free asparaginase is highly efficacious in ASNS^low leukemia and solid cancer mouse xenograft models” (Cancer letters, 2024).
Where a chain is given by its changes, count along the chain named. Names may count otherwise. One block for each molecule: values may come before it.

Experiments:
[1] = biological target: T1, EBD-200 (Cavia porcellus, UniProt H0W0T5); settings: read-out: EBD-200 ^a; 50 mM Tris-HCl pH 7.5, 200 mM NaCl, 37 °C
T1 construct: gene ASPG
Text: continuous coupled NADH spectrophotometric assay (malic dehydrogenase / glutamic-oxalacetic transaminase) on EBD-200

[2] = biological target: T2, E. coli L-ASNase (EcA) (Escherichia coli, UniProt P00805); assay: continuous coupled NADH assay (L-glutamic dehydrogenase); NMR; format: biochemical; settings: 5 mM GLN, 10 nM enzyme (spectrophotometric); 0.1 and 2 μM enzyme (NMR)
T2 construct: gene ansB; made in cytosol of E. coli C41(DE3) from His6-SUMO-pET14b, His-SUMO tag cut with SUMO protease, gel filtration; family forms tetramers
T2 sequence (P00805 23-348): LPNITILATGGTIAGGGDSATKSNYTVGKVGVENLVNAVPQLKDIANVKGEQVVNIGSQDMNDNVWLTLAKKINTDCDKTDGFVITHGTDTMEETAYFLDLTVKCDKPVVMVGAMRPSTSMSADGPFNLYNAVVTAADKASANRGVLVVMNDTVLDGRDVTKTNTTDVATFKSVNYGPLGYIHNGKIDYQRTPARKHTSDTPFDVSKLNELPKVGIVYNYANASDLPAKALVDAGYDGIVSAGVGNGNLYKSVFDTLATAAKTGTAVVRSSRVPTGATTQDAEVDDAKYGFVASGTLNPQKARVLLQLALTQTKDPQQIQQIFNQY

[3] = substrate: NC(=O)C[C@H](N)C(=O)O; assay: continuous coupled NADH spectrophotometric assay (malic dehydrogenase / glutamic-oxalacetic transaminase); format: biochemical, Escherichia coli; settings: 50 mM Tris-HCl pH 7.5, 200 mM NaCl, 37 °C
[4] = substrate: NC(=O)C[C@H](N)C(=O)O; assay: purified protein; settings: 50 mM Tris-HCl pH 7.5, 200 mM NaCl, 37 °C, in-house preparation, 0.6 % WT contamination, printed as >1.4 mM

T1 sequence (H0W0T5 1-359): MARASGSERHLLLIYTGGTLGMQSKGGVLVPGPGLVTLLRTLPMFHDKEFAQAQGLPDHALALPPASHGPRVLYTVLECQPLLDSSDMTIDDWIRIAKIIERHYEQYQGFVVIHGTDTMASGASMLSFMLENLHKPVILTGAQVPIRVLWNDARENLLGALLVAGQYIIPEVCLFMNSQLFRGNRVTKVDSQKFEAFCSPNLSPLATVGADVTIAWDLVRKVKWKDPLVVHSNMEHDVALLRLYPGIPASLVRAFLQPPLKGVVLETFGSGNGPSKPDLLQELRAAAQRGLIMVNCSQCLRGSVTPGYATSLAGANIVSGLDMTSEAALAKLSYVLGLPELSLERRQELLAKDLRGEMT

Km [1]: 41.3 ± 0.7 µM
Molecule: NC(=O)C[C@H](N)C(=O)O [L-ASN]

Molecule: NC(=O)CC[C@H](N)C(=O)O [L-GLN]
continuous coupled NADH assay (L-glutamic dehydrogenase); NMR [2]: GLNase activity is easily observed by EcA but not by EBD-200

B1: E. coli L-ASNase (EcA) (Escherichia coli K-12) (protein)
chain: T2 sequence (P00805 23-348)
notes: made in cytosol of E. coli C41(DE3) from His6-SUMO-pET14b, His-SUMO tag cut with SUMO protease, gel filtration; family forms tetramers
Km [3]: 14 µM
kcat [3]: 44 s⁻¹

B2: E. coli L-ASNase (EcA) (Escherichia coli K-12; Q81L) (protein)
chain: T2 sequence (P00805 23-348) with Q59L
Km [4]: 1400 µM
kcat [4]: 1.3 s⁻¹
